Values quoted from earlier work as cited in patent US20240238439A1, “HER3-BINDING ANTIBODY-DRUG CONJUGATE” (Hummingbird Bioscience Pte. Ltd., priority 2023, published 2024).

Tests used:
[1] = Differential Scanning Fluorimetry
[2] = target: interaction between HER3 and HER2 (Homo sapiens, UniProt P21860); settings: dose-dependent
cancer cells = settings: in vitro
[3] = tested on: HER3-mediated signalling in cells of HER3-expressing cancer cell lines; settings: in vitro
[4] = tested on: HER3 overexpressing cells
human HER3 = human HER3 (Homo sapiens, UniProt P21860)
[5] = target: interaction between HER3 and EGFR (Homo sapiens, UniProt P21860)
[6] = tested on: xenograft tumors derived from a human cancer cell line harbouring an NRG gene fusion
[7] = tested on: HER3-mediated signalling in HER3-expressing human cancer cell line-derived xenograft tumors; settings: in vivo
[8] = tested on: human cancer cell line-derived xenograft tumors; settings: in vivo
[9] = tested on: thyroid cancer cell lines harbouring the V600E BRAF mutation

B1: 10D1F hIgG1: HER3-binding antibody clone 10D1F (VH SEQ ID NO:33, VL SEQ ID NO:58) in human IgG1/Vκ format (antibody, V domains shown)
VH: QVQLQESGPGLVKPSQTLSLTCTVSGYSITSGYSWHWIRQHPGKGLEWIGSIRYSGGTDYNPSLKSLVTISADTSKNQFSLKLSSVTAADTAVYYCARMTTAPWYPFDYWGQGTTVTVSS
VL: DIQMTQSPSSVSASVGDRVTITCKASQIVGSNVAWYQQKPGKAPEPLIYSASYLYSGVPSRFSGSGSGTDFTLTISSLQPEDFATYYCQQYSSHPLTFGQGTKLEIK
binding to cyno, mouse and rat HER3 (cyno, mouse and rat HER3): high-affinity binding | melting temperature [1]: 70.0 °C | inhibition of interaction between HER3 and HER2 [2]: highly potent | growth of cancer cells (cancer cells): potently inhibits the growth of cancer cells in vitro | HER3-mediated signalling [3]: inhibits HER3-mediated signalling | ADCC activity [4]: induces ADCC activity against HER3 overexpressing cells in a dose-dependent manner | binding to human HER3 (human HER3): high affinity and specificity | cross-reactivity with other human EGFR family members (human HER3): no cross-reactivity | ligand dependence of binding to HER3 (human HER3): ligand (NRG)-independent | affinity of binding to human HER3 (human HER3; in the presence or absence of human NRG1): subpicomolar | inhibition of interaction between HER3 and EGFR [5]: inhibits interaction between HER3 and EGFR in a dose-dependent fashion | growth of xenograft tumors [6]: extremely potent at inhibiting growth | HER3-mediated signalling [7]: inhibits HER3-mediated signalling | growth of xenograft tumors [8]: potently inhibits growth of human cancer cell line-derived xenograft tumors in vivo | in vitro proliferation [9]: inhibits in vitro proliferation
